Patent US11278600B2, “Human alpha-galactosidase variants” (Codexis, Inc., priority 2014, dated 2022)

How the values were obtained:
Assay type in all cases: biochemical
[1] = HTP-analysis of supernatants pretreated with acid (MUGal hydrolysis); conditions: challenge at pH 4.3; activity of the variant/activity of WT GLA (SEQ ID NO: 5); yeast supernatant
Description: (§1) Yeast (INVSc1) cells transformed with vectors expressing GLA and GLA variants using the lithium acetate method were selected on SD-Ura agar plates. After 72 h incubation at 30° C. colonies were placed into the wells of Axygen® 1.1 ml 96-well deep well plates filled with 200 μl/well SD-Ura broth (2 g/L SD-Ura, 6.8 g/L yeast nitrogen base without amino acids [Sigma Aldrich]), 3.06 g/L sodium dihydrogen phosphate, 0.804 g/L disodium hydrogen phosphate, pH 6.0 supplemented with 6% glucose. The cells were allowed to grow for 20-24 hours in a Kuhner shaker (250 rpm, 30° C., and 85% relative humidity). Overnight culture samples (20 μL) were transferred into Corning Costar® 96-well deep plates filled with 380 µL of SD-ura broth supplemented with 2% glucose. The plates were incubated for 66-84 h in a Kuhner shaker (250 rpm, 30° C., and 85% relative humidity). The cells were then pelleted (4000 rpm×20 min), and the supernatants isolated and stored at 4° C. prior to analysis.
GLA variants were challenged with acidic buffer to simulate the extreme pHs that the variants may encounter in lysosomes. First, 50 μL of yeast culture supernatant and 50 uL of McIlvaine buffer (pH 3.3-4.3) were added to the wells of a 96-well round bottom plate. The plates were sealed with a PlateLoc Thermal Microplate Sealer (Agilent) and incubated at 37° C. for 1-3 h. For the assay, 10-50 uL of acid-pH-challenged sample was mixed with 0-40 μL, of McIlvaine buffer pH 4.8, 25 μL, of 1 M citrate buffer pH 4.3 and 25 μL, of 4 mM MUGal in McIlvaine buffer pH 4.8. The reactions were mixed briefly and incubated at 37° C. for 30-180 minutes, prior to quenching with 100 μL, of 1 M sodium carbonate. Hydrolysis was analyzed using a SpectraMax® M2 microplate reader monitoring fluorescence (Ex. 355 nm, Em. 448 nm).

[2] = HTP-analysis of yeast culture supernatants, no challenge (MUGal hydrolysis); conditions: activity of the variant/activity of WT GLA (SEQ ID NO: 5), yeast supernatant
Description: as §1
GLA variant activity was determined by measuring the hydrolysis of 4-methylumbelliferyl α-D-galactopyranoside (MUGal). For this assay, 5-50 μL, of yeast culture supernatant produced as described above, was mixed with 0-45 μL, of McIlvaine Buffer (McIlvaine, J. Biol. Chem., 49:183-186 [1921]), pH 4.8 and 50 μL of 2 mM MUGal in 50 mM citrate, 200 mM KCl, pH 4.6 in a 96-well, black, opaque bottom plate. The reactions were mixed briefly and incubated at 37° C. for 30-180 minutes, prior to quenching with 100 μL, of 1 M sodium carbonate. Hydrolysis was analyzed using a SpectraMax® M2 microplate reader monitoring fluorescence (Ex. 355 nm, Em. 448 nm).

[3] = HTP-analysis of supernatants pretreated with base (MUGal hydrolysis); conditions: challenge at pH 7.0; activity of the variant/activity of WT GLA (SEQ ID NO: 5); yeast supernatant
Description: as §1
GLA variants were challenged with basic (neutral) buffer to simulate the pHs that the variants encounter in the blood following their administration to a patient. First, 50 μL of yeast culture supernatant and 50 uL of McIlvaine buffer (pH 7.0-8.2) or 200 mM sodium bicarbonate (pH 9.1-9.7) were added to the wells of a 96-well round bottom plate. The plates were sealed and incubated at 37° C. for 1-18 h. For the assay, 10-50 μL of basic-pH-challenged sample was mixed with 0-40 μL, of McIlvaine buffer pH 4.8, 25 μL, of 1 M citrate buffer pH 4.3 and 25 μL, of 4 mM MUGal in McIlvaine buffer pH 4.8. The reactions were mixed briefly and incubated at 37° C. for 30-180 minutes, prior to quenching with 100 μL, of 1 M sodium carbonate. Hydrolysis was analyzed using a SpectraMax® M2 microplate reader monitoring fluorescence (Ex. 355 nm, Em. 448 nm).

B1: 21 (protein)
chain: LDNGLARTPTMGWLHWERFMCNLDCQEEPDSCISEKLFMEMAELMVSEGWKDAGYEYLCIDDCWMAPQRDSEGRLQADPQRFPHGIRQLANYVHSKGLKLGIYADVGNKTCAGFPGSFGYYDIDAQTFADWGVDLLKFDGCYCDSLENLADGYKHMSLALNRTGRSIVYSCEWPLYMWPFQKPNYTEIRQYCNHWRNFADIDDSWKSVKSILDWTSFNQERIVDVAGPGGWNDPDMLVIGNFGLSWDQQVTQMALWAIMAAPLFMSNDLRHISPQAKALLQDKDVIAINQDPLGKQGYQLRQGDNFEVWERPLSGLAWAVAMINRQEIGGPRSYTIAVASLGKGVACNPACFITQLLPVKRKLGFYEWTSRLKSHVNPTGTVLLQLENTMQMSLKDLLL
modifications: Synthetic Polypeptide sequence of Variant No. 21 of mature Human GLA
Relative Activity of GLA Variants After Challenge at pH 4.3 [1]: +++ (+++ = >2.5 relative activity over WT GLA (SEQ ID NO: 5)) | Relative Activity of GLA Variants After No Challenge (NC) [2]: + (+ = 0.5 to 1.5 relative activity over WT GLA (SEQ ID NO: 5)) | Relative Activity of GLA Variants After Challenge at pH 7.0 [3]: ++ (++ = >1.5 to 2.5 relative activity over WT GLA (SEQ ID NO: 5))

B2: 23 (protein)
chain: LDNGLARTPTMGWLHWERFMCNLDCQEEPDSCISEKLFMEMAELMVSEGWKDAGYEYLCIDDCWMAPQRDSEGRLQADPQRFPHGIRQLANYVHSKGLKLGIYADVGNKTCAGFPGSFGYYDIDAQTFADWGVDLLKFDGCYCDSLENLADGYKHMSLALNRTGRSIVYSCEWPLYMWPFQKPNYTEIRQYCNHWRNFADIDDSWKSVKSILDWTSFNQERIVDVAGPGGWNDPDMLVIGNFGLSWNQQVTQMALWAIMAAPLFMSNDLRHISPQAKALLQDKDVIAINQDPLGKQGYQLRKGDNFEVWERPLSGLAWAVAMINRQEIGGPRSYTIAVASLGKGVACNPACFITQLLPVKRKLGFYEWTSRLKSHVNPTGTVLLQLENTMQMSLKDLLL
modifications: Synthetic Polypeptide sequence of Variant No. 23 of mature Human GLA
Relative Activity of GLA Variants After Challenge at pH 4.3 [1]: +++ (+++ = >2.5 relative activity over WT GLA (SEQ ID NO: 5)) | Relative Activity of GLA Variants After No Challenge (NC) [2]: + (+ = 0.5 to 1.5 relative activity over WT GLA (SEQ ID NO: 5)) | Relative Activity of GLA Variants After Challenge at pH 7.0 [3]: ++ (++ = >1.5 to 2.5 relative activity over WT GLA (SEQ ID NO: 5))

B3: 22 (protein)
chain: LDNGLARTPTMGWLHWERFMCNLDCQEEPDSCISEKLFMEMAELMVSEGWKDAGYEYLCIDDCWMAPQRDSEGRLQADPQRFPHGIRQLANYVHSKGLKLGIYADVGNKTCAGFPGSFGYYDIDAQTFADWGVDLLKFDGCYCDSLENLADGYKHMSLALNRTGRSIVYSCEWPLYMWPFQKPNYTEIRQYCNHWRNFADIDDSWKSVKSILDWTSFNQERIVDVAGPGGWNDPDMLVIGNFGLSWNQQVTQMALWAIMAAPLFMSNDLRHISPQAKALLQDKDVIAINQDPLGKQGYRLRQGDNFEVWERPLSGLAWAVAMINRQEIGGPRSYTIAVASLGKGVACNPACFITQLLPVKRKLGFYEWTSRLRSHVNPTGTVLLQLENTMQMSLKDLLL
modifications: Synthetic Polypeptide sequence of Variant No. 22 of mature Human GLA
Relative Activity of GLA Variants After Challenge at pH 4.3 [1]: + (+ = 0.5 to 1.5 relative activity over WT GLA (SEQ ID NO: 5)) | Relative Activity of GLA Variants After No Challenge (NC) [2]: + (+ = 0.5 to 1.5 relative activity over WT GLA (SEQ ID NO: 5)) | Relative Activity of GLA Variants After Challenge at pH 7.0 [3]: + (+ = 0.5 to 1.5 relative activity over WT GLA (SEQ ID NO: 5))
